Data reported in patent US20170333548A1.

Columns and labels:
Experiment in all cases: cell-based or functional assay
[1] = target: DV4-EDIII-DV2 chimeric E glycoprotein (DENV4 backbone with DENV2 envelope domain III), on virus particles (Dengue virus 4/2)
[2] = target: wild-type DENV2 E glycoprotein (Parent_WT_DENV2), on virus particles (Dengue virus 2) (UniProt P07564)
[3] = target: wild-type DENV4 E glycoprotein (Parent_WT_DENV4), on virus particles (Dengue virus 4) (UniProt P09866)

In the case of human monoclonal antibody 2D22, the FRNT50 (Vero-81 focus reduction neutralization test) [1] is reported as 0.01 ng/µL, the FRNT50 (Vero-81 focus reduction neutralization test) [2] is reported as 0.1 ng/µL and the FRNT50 (Vero-81 focus reduction neutralization test) [3] is reported as > 5 ng/µL.
